Assay results as given in the supplement of paper PMC5998384.

What was measured:
HeLa Kyoto [1] = experiment: solubility in G1/S (NP-40 vs SDS abundance) (log2 ratio); higher = more soluble; details: cell cycle stage: G1/S
HeLa Kyoto [2] = experiment: solubility change mitosis vs G1/S (difference of NP-40 vs SDS log2 ratios) (log2 ratio difference); higher = more soluble in mitosis
HeLa Kyoto [3] = experiment: melting temperature (median over replicates), in situ; higher = more thermally stable
HeLa Kyoto [4] = experiment: thermal stability score vs G1/S (z-score of summed log2 fold changes over temperatures); higher = more thermally stable than in G1/S
[5] = cell cycle stage: early G1 (4.5 h after nocodazole release)
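Wherever melting temperature (median over replicates), in situ is given: HeLa Kyoto cells synchronized by double thymidine or nocodazole block, proteins quantified by TMT10plex mass spectrometry, three independent biological replicates.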
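Wherever solubility change mitosis vs G1/S (difference of NP-40 vs SDS log2 ratios) is given: synchronized HeLa Kyoto cells (double thymidine block for G1/S, nocodazole release for mitosis), protein amounts in NP-40 versus SDS lysates quantified by mass spectrometry, three biological replicates.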
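Wherever solubility in G1/S (NP-40 vs SDS abundance) is given: HeLa Kyoto cells arrested at G1/S by double thymidine block, proteins quantified by TMT10plex mass spectrometry in mild NP-40 versus SDS extracts, three biological replicates.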
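Wherever thermal stability score vs G1/S (z-score of summed log2 fold changes over temperatures) is given: synchronized HeLa Kyoto cells, proteins quantified by TMT10plex mass spectrometry, three biological replicates, mitosis taken 0.5 h after nocodazole release, G1/S directly after double thymidine block.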

Row | Substance | solubility in G1/S (log2) (HeLa Kyoto [1]) | solubility change mitosis (log2) (HeLa Kyoto [2]) | melting temperature (HeLa Kyoto [3]; cell cycle stage: G1/S) | melting temperature (HeLa Kyoto [3]; cell cycle stage: mitosis) | thermal stability score (HeLa Kyoto [4]; [5]) | thermal stability score (HeLa Kyoto [4]; cell cycle stage: mitosis)
1 | MGSPEGRFHFAIDRGGTFTDVFAQCPGGHVRVLKLLSEDPANYADAPTEGIRRILEQEAGMLLPRDQPLDSSHIASIRMGTTVATNALLERKGERVALLVTRGFRDLLHIGTQARGDLFDLAVPMPEVLYEEVLEVDERVVLHRGEAGTGTPVKGRTGDLLEVQQPVDLGALRGKLEGLLSRGIRSLAVVLMHSYTWAQHEQQVGVLARELGFTHVSLSSEAMPMVRIVPRGHTACADAYLTPAIQRYVQGFCRGFQGQLKDVQVLFMRSDGGLAPMDTFSGSSAVLSGPAGGVVGYSATTYQQEGGQPVIGFDMGGTSTDVSRYAGEFEHVFEASTAGVTLQAPQLDINTVAAGGGSRLFFRSGLFVVGPESAGAHPGPACYRKGGPVTVTDANLVLGRLLPASFPCIFGPGENQPLSPEASRKALEAVATEVNSFLTNGPCPASPLSLEEVAMGFVRVANEAMCRPIRALTQARGHDPSAHVLACFGGAGGQHACAIARALGMDTVHIHRHSGLLSALGLALADVVHEAQEPCSLLYAPETFVQLDQRLSRLEEQCVDALQAQGFPRSQISTESFLHLRYQGTDCALMVSAHQHPATARSPRAGDFGAAFVERYMREFGFVIPERPVVVDDVRVRGTGRSGLRLEDAPKAQTGPPRVDKMTQCYFEGGYQETPVYLLAELGYGHKLHGPCLIIDSNSTILVEPGCQAEVTKTGDICISVGAEVPGTVGPQLDPIQLSIFSHRFMSIAEQMGRILQRTAISTNIKERLDFSCALFGPDGGLVSNAPHIPVHLGAMQETVQFQIQHLGADLHPGDVLLSNHPSAGGSHLPDLTVITPVFWPGQTRPVFYVASRGHHADIGGITPGSMPPHSTMLQQEGAVFLSFKLVQGGVFQEEAVTEALRAPGKVPNCSGTRNLHDNLSDLRAQVAANQKGIQLVGELIGQYGLDVVQAYMGHIQANAELAVRDMLRAFGTSRQARGLPLEVSSEDHMDDGSPIRLRVQISLSQGSAVFDFSGTGPEVFGNLNAPRAVTLSALIYCLRCLVGRDIPLNQGCLAPVRVVIPRGSILDPSPEAAVVGGNVLTSQRVVDVILGAFGACAASQGCMNNVTLGNAHMGYYETVAGGAGAGPSWHGRSGVHSHMTNTRITDPEILESRYPVILRRFELRRGSGGRGRFRGGDGVTRELLFREEALLSVLTERRAFRPYGLHGGEPGARGLNLLIRKNGRTVNLGGKTSVTVYPGDVFCLHTPGGGGYGDPEDPAPPPGSPPQALAFPEHGSVYEYRRAQEAV [OPLAH] | 0.0511 | -0.171 | 51.1 °C | 51.3 °C | -0.162 | -0.669
2 | MADFLPSRSVLSVCFPGCLLTSGEAEQQRKSKEIDKCLSREKTYVKRLVKILLLGAGESGKSTFLKQMRIIHGQDFDQRAREEFRPTIYSNVIKGMRVLVDAREKLHIPWGDNSNQQHGDKMMSFDTRAPMAAQGMVETRVFLQYLPAIRALWADSGIQNAYDRRREFQLGESVKYFLDNLDKLGEPDYIPSQQDILLARRPTKGIHEYDFEIKNVPFKMVDVGGQRSERKRWFECFDSVTSILFLVSSSEFDQVLMEDRLTNRLTESLNIFETIVNNRVFSNVSIILFLNKTDLLEEKVQIVSIKDYFLEFEGDPHCLRDVQKFLVECFRNKRRDQQQKPLYHHFTTAINTENIRLVFRDVKDTILHDNLKQLMLQ [GNA13] | -0.176 | -0.27 | 53.7 °C | 53.5 °C | 1.07 | 1.56
3 | MAGAAPRVRYLAGFCCPLGGLAAGKPRVLCHEAEVFLSTGSELVYVYDQEGGLLTAAFRFPDQVWHLELLAPRRLLYALCARRGLYCLSLDHPGRSRSTSQDDRDSEDGDQPSPVIPVDPDACILPDAALCAFTLLDSVLVTLVQGPARWKMQLFEQPCPGEDPRPGGQIGEVELSSYTPPAGVPGKPAAPHFLPVLCSVSPSGSRVPHDLLGGSGGFTLEDALFGLLFGADATLLQSPVVLCGLPDGQLCCVILKALVTSRSAPGDPNALVKILHHLEEPVIFIGALKTEPQAAEAAENFLPDEDVHCDCLVAFGHHGRMLAIKASWDESGKLVPELREYCLPGPVLCAACGGGGRVYHSTPSDLCVVDLSRGSTPLGPEQPEEGPGGLPPMLCPASLNICSVVSLSASPRTHEGGTKLLALSAKGRLMTCSLDLDSEMPGPARMTTESAGQKIKELLSGIGNISERVSFLKKAVDQRNKALTSLNEAMNVSCALLSSGTGPRPISCTTSTTWSRLQTQDVLMATCVLENSSSFSLDQGWTLCIQVLTSSCALDLDSACSAITYTIPVDQLGPGARREVTLPLGPGENGGLDLPVTVSCTLFYSLREVVGGALAPSDSEDPFLDECPSDVLPEQEGVCLPLSRHTVDMLQCLRFPGLAPPHTRAPSPLGPTRDPVATFLETCREPGSQPAGPASLRAEYLPPSVASIKVSAELLRAALKDGHSGVPLCCATLQWLLAENAAVDVVRARALSSIQGVAPDGANVHLIVREVAMTDLCPAGPIQAVEIQVESSSLADICRAHHAVVGRMQTMVTEQATQGSSAPDLRVQYLRQIHANHETLLREVQTLRDRLCTEDEASSCATAQRLLQVYRQLRHPSLILL [FAAP100] | 0.0643 | -0.00216 | 54 °C | 52.6 °C | -0.383 | 0.0611
4 | MFGAAGRQPIGAPAAGNSWHFSRTMEELVHDLVSALEESSEQARGGFAETGDHSRSISCPLKRQARKRRGRKRRSYNVHHPWETGHCLSEGSDSSLEEPSKDYRENHNNNKKDHSDSDDQMLVAKRRPSSNLNNNVRGKRPLWHESDFAVDNVGNRTLRRRRKVKRMAVDLPQDISNKRTMTQPPEGCRDQDMDSDRAYQYQEFTKNKVKKRKLKIIRQGPKIQDEGVVLESEETNQTNKDKMECEEQKVSDELMSESDSSSLSSTDAGLFTNDEGRQGDDEQSDWFYEKESGGACGITGVVPWWEKEDPTELDKNVPDPVFESILTGSFPLMSHPSRRGFQARLSRLHGMSSKNIKKSGGTPTSMVPIPGPVGNKRMVHFSPDSHHHDHWFSPGARTEHDQHQLLRDNRAERGHKKNCSVRTASRQTSMHLGSLCTGDIKRRRKAAPLPGPTTAGFVGENAQPILENNIGNRMLQNMGWTPGSGLGRDGKGISEPIQAMQRPKGLGLGFPLPKSTSATTTPNAGKSA [GPATCH2] | 0.0278 | -0.0138 | 51.7 °C | 53 °C | -0.791 | -1.01
5 | MSTNGDDHQVKDSLEQLRCHFTWELSIDDDEMPDLENRVLDQIEFLDTKYSVGIHNLLAYVKHLKGQNEEALKSLKEAENLMQEEHDNQANVRSLVTWGNFAWMYYHMGRLAEAQTYLDKVENICKKLSNPFRYRMECPEIDCEEGWALLKCGGKNYERAKACFEKVLEVDPENPESSAGYAISAYRLDGFKLATKNHKPFSLLPLRQAVRLNPDNGYIKVLLALKLQDEGQEAEGEKYIEEALANMSSQTYVFRYAAKFYRRKGSVDKALELLKKALQETPTSVLLHHQIGLCYKAQMIQIKEATKGQPRGQNREKLDKMIRSAIFHFESAVEKKPTFEVAHLDLARMYIEAGNHRKAEENFQKLLCMKPVVEETMQDIHFHYGRFQEFQKKSDVNAIIHYLKAIKIEQASLTRDKSINSLKKLVLRKLRRKALDLESLSLLGFVYKLEGNMNEALEYYERALRLAADFENSVRQGP [IFIT1] | 0.322 | -0.063 | 49.1 °C | 48.3 °C | 1.47 | 2.07
6 | MACSIVQFCYFQDLQAARDFLFPHLREEILSGALRRDPSKSTDWEDDGWGAWEENEPQEPEEEGNTCKTQKTSWLQDCVLSLSPTNDLMVIAREQKAVFLVPKWKYSDKGKEEMQFAVGWSGSLNVEEGECVTSALCIPLASQKRSSTGRPDWTCIVVGFTSGYVRFYTENGVLLLAQLLNEDPVLQLKCRTYEIPRHPGVTEQNEELSILYPAAIVTIDGFSLFQSLRACRNQVAKAAASGNENIQPPPLAYKKWGLQDIDTIIDHASVGIMTLSPFDQMKTASNIGGFNAAIKNSPPAMSQYITVGSNPFTGFFYALEGSTQPLLSHVALAVASKLTSALFNAASGWLGWKSKHEEEAVQKQKPKVEPATPLAVRFGLPDSRRHGESICLSPCNTLAAVTDDFGRVILLDVARGIAIRMWKGYRDAQIGWIQTVEDLHERVPEKADFSPFGNSQGPSRVAQFLVIYAPRRGILEVWSTQQGPRVGAFNVGKHCRLLYPGYKIMGLNNVTSQSWQPQTYQICLVDPVSGSVKTVNVPFHLALSDKKSERAKDMHLVKKLAALLKTKSPNLDLVETEIKELILDIKYPATKKQALESILASERLPFSCLRNITQTLMDTLKSQELESVDEGLLQFCANKLKLLQLYESVSQLNSLDFHLDTPFSDNDLALLLRLDEKELLKLQALLEKYKQENTRTNVRFSDDKDGVLPVKTFLEYLEYEKDVLNIKKISEEEYVALGSFFFWKCLHGESSTEDMCHTLESAGLSPQLLLSLLLSVWLSKEKDILDKPQSICCLHTMLSLLSKMKVAIDETWDSQSVSPWWQQMRTACIQSENNGAALLSAHVGHSVAAQISNNMTEKKFSQTVLGADSEALTDSWEALSLDTEYWKLLLKQLEDCLILQTLLHSKGNTQTSKVSSLQAEPLPRLSVKKLLEGGKGGIADSVAKWIFKQDFSPEVLKLANEERDAENPDEPKEGVNRSFLEVSEMEMDLGAIPDLLHLAYEQFPCSLELDVLHAHCCWEYVVQWNKDPEEARFFVRSIEHLKQIFNAHVQNGIALMMWNTFLVKRFSAATYLMDKVGKSPKDRLCRRDVGMSDTAMTSFLGSCLDLLQILMEADVSRDEIQVPVLDTEDAWLSVEGPISIVELALEQKHIHYPLVEHHSILCSILYAVMRFSLKTVKPLSLFDSKGKNAFFKDLTSIQLLPSGEMDPNFISVRQQFLLKVVSAAVQAQHSATKVKDPTEEATPTPFGKDQDWPALAVDLAHHLQVSEDVVRRHYVGELYNYGVDHLGEEAILQVHDKEVLASQLLVLTGQRLAHALLHTQTKEGMELLARLPPTLCTWLKAMDPQDLQNTEVPIATTAKLVNKVIELLPEKHGQYGLALHLIEAVEAISLPSL [RAB3GAP2] | 0.0196 | -0.143 | 48.7 °C | 49.2 °C | 1.1 | 1.85
7 | TRIP12 | -0.461 | 0.333 | 48.4 °C | 48.7 °C | -0.291 | 0.532
